Laboratory results reported in the nanobody polyreactivity screen of Harvey et al. (2022).

Assay: yeast display, Sf9 membrane polyspecificity reagent, FACS + sequencing; frameworks hold sequencing errors
Method in brief: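 Synthetic nanobody libraries on Saccharomyces cerevisiae BJ5465 were galactose-induced for 36–48 hours, stained 1 hour at 4 °C with 10% biotinylated, detergent-solubilized Sf9 membrane reagent and enriched on streptavidin microbeads. FACS then separated cells into low and high (top ~1%) gates by anti-HA (expression) and streptavidin (reagent binding) fluorescence. Genes were colony-PCR amplified, MiSeq 2 × 250 sequenced and CDR-length filtered. A clone's polyreactivity label is that of its gate of origin.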

Sequence | polyreactivity (PSR sort gate)
QVQLVESGGGLVQAGGSLRLSSAASGFTFKAYALGWYRQAPGTERELVAAITKSGGRTFYADSVKGRFTISRDNAKNTVYLQINCLNPEDTAVYYCSGRRWGYWTGYRGLDYDYWGQGTQVTVSS | high polyreactivity
QVQLVESGGGLVQAGGSLRLSSAASGFTFKYYAMGWYRQAPGKERELVARITGSSGSTYYADSVKGRFTISRDNAKNTVYLQMNSLKPEDTAVYYCAASFKFRYYRYGAYEYWGQGTQVTVSS | high polyreactivity
QVQLVESGGGLVQAGGSLRLSSAASGFTFRAYTMGWYRQAPGKERELVAAISWSGSSTYYADSVKGRFTISRDTAKNTVYLQMNSLKPEDTAVYYCAARHWRRWFPYDYWGQGTQVTVSS | high polyreactivity
QVQLVESGGGLVQAGGSLRLSSAASGFTFTIYAMGWYRPAPGKERELVDTISTRGGNTYYADSVKGRFTISRDNAKNTVYLQMNSLKPEDTAVYYCAAEHWFPSAPWYYSDLHYYWGQGTQVTVSS | high polyreactivity
QVQLVESGGGLVQAGGSLRLSSAASGFTFWYYAMGWYRQAPGKERELVAAITWNGGSTYYADSVKGRFTISRDNAKNTVYLQMNSLKPEDTAVYYCNAYSPFYPVPSEYDYWGQGTQVTVSS | high polyreactivity
QVQLVESGGGLVQAGGSLRLSSAASGIIFRGYVMGWYRQAPGKERELVAASTWSGGSTYYADSVKGRFTISRDNAKNTVYLQMNSLKPEDTAVYYCNAVRVRVTSHRIRQLDYGYWGQGTQVTVSS | low polyreactivity
QVQLVESGGGLVQAGGSLRLSSAASGIIFRRYAMGWYRQAPGKERELVAAMSWSGGSTYYADSVKGRFTISRDNAKNTVYLQMNSLKPEDTAVYYCAAAAYTRDEYDYWGQGTQVTVSS | high polyreactivity
QVQLVESGGGLVQAGGSLRLSSAASGITFLTNAMGWYRQAPGKERELVAAISGRGTRTYYADSVKGRFTISRDNAKKTVFLQMNRLKPEDTAVYYCAAVRRPVHYPYDYWGQGNQVTVSS | high polyreactivity
QVQLVESGGGLVQAGGSLRLSSAASGITFRRYAMGWYRQAPGKERELVASITSGGSTNYADSVKGRFTISRDNAKYTVYLQMNSLKPDDTAVYYCAADSRWGMDYWGQGTQVTVSS | high polyreactivity
QVQLVESGGGLVQAGGSLRLSSAASGITFSEYAMGRYRQAPGKERELVATITSGGSTNYADSVKGRFTISRDNAKNTVYLQMNSLKPEDTAVYYCNALDGTVDFSGWYDDWGQGTQVTVSS | low polyreactivity
QVQLVESGGGLVQAGGSLRLSSAASGITFSKNAMGRYRQAPGKERELVAAISNSGGSTYYADSVKGRFTISRDNAKNTVYLQMNSVNPEDTAVYYCASDGGYAYGYNHWGQGTQVTVSS | low polyreactivity
QVQLVESGGGLVQAGGSLRLSSAASGLIYPVYAMGWYRQAPGKEREFVASIWRGGTTYYADSVKGRFTISRDNAKNTVYLQMTSLKPEDTAVYYCASRYYPRGLVFPFTKYDYWGLGTQVTVSS | high polyreactivity
QVQLVESGGGLVQAGGSLRLSSAASGLTFFTYTMGWYRQAPGKERELVATINSSGGTTYYADSVKGRFTISRDNAKNTVYLQMNSLKPEDTAVYFCAKRFSPRYYYWGQGTQVTVSS | high polyreactivity
QVQLVESGGGLVQAGGSLRLSSAASGLTFKGYAIGWYRQEPGKESELVAANNGSGGSTYYADSVKRRFTISRDNAKNTVYLQMNSLKPEDTAVYYCNAARGHPYPLSDNVDDYDYWGQGTQVTVSS | low polyreactivity
QVQLVESGGGLVQAGGSLRLSSAASGRIFAVYAMGWYRQAPGKEREFVAAISYSGGITYYADSVKGRFTISRDNAKNTVYLQMNSLKPEDTAVYYCNAYYYFWGQGTQVTVSS | low polyreactivity
QVQLVESGGGLVQAGGSLRLSSAASGRIFPFNAMGWYRQAPGKERELVAAITSSGGRTYYADSVKGRFTISRDNAKNTVYLQMNSLTPEDTAVYYCAGTLVRRARSGPMGYWGQGTQVTVSS | high polyreactivity
QVQLVESGGGLVQAGGSLRLSSAASGRIFRVNAMGLYTQAPGKERELVAAISRRGGSTYYADSVKGRFTISRDNAKNTVYLQMNTLKPEDTAVYYCAKKSYSYGYNSYYYWGQGTQVTVSS | high polyreactivity
QVQLVESGGGLVQAGGSLRLSSAASGRIFSDYAMGWYRQAPGKERELVATITSGDSTNYADSVKGRFTISRDNAKNTVYLQMNSLKPEDTAVYYCNADRFADYDYWGQGTQVTVSS | low polyreactivity
QVQLVESGGGLVQAGGSLRLSSAASGRIFSIYAMGWYRQAPGKERELVAAITDRGGTTHYADSVKGRFTISRDYAKNTVYLQMNSLKPEDTAVYYCASDTYDYSSVEDFDYWGQGTQVTVSS | low polyreactivity
QVQLVESGGGLVQAGGSLRLSSAASGRIFSRNTMGCYRQAPGKERELVAAIRYSGGRTYYADSVKGRFTISRDNAKNTVYLQMNCLKQEDTAVYYCAARWYGQGVSYRMDYWGQGTQVTVSS | high polyreactivity
QVQLVESGGGLVQAGGSLRLSSAASGRIFTYYAMGWYRQAPGKVREVVAAISFRGASTYYADSVKGRVTISRDYAQNTVYLQMHSLKPEDTAVYYGAAERIARPTIDYWGQGTQVTVSS | low polyreactivity
QVQLVESGGGLVQAGGSLRLSSAASGRIFVVNAMGWYRQAPGKERELVAAISKSGARTYYADSVKGRFTISRDNAKNTVYLQMNSLKPEDTAVYYCAAESKGYSQSVFPYDYWGQGTQVTVSS | high polyreactivity

Sequence | polyreactivity (PSR sort gate)
QVQLVESGGGLVQAGGSLRLSSAASGRIFYGYAMGWYRQAPGKERELVAAITNTGVDTYYADSVKGRFTISRDNEKNTVYLQMNSLKPEDTAVYYCAADGRRPKSGYWGQGTQVTVSS | low polyreactivity
QVQLVESGGGLVQAGGSLRLSSAASGRTFAGYTMGWYRQAPGKERELVAAITKSGGSTYYADSVKGRFTISRDNAKNTVYLQMNSLKPEDTAFYYCAARYIPSRYGTGGGYYSWGQGTQVTVSS | high polyreactivity
QVQLVESGGGLVQAGGSLRLSSAASGRTFNYYPMGWYRQAPGKQWELVAAISDSAGDTYYADSVKGRFTISRDNAKNTVDLQKNSQKPEDPAVYYCAVVRGGRGYPGYDYWGQGTQVTVSS | low polyreactivity
QVQLVESGGGLVQAGGSLRLSSAASGRTFQYYAMGWYRQAPGKERELVAAITSGGSTYYADSVKGRFTISRDNAKNTVSLQMNSLKPEDTAVYYCAATFYYSGHDDYWGQGTQVTVSS | low polyreactivity
QVQLVESGGGLVQAGGSLRLSSAASGRTFRRYAMGWYRQAPGKERELVATITNAGSTYYADSVKGRFTISRDNAKNTVYLPMNSLKPEDTAVYYCAARVPYKSDYWGQGTQVTVSS | low polyreactivity
QVQLVESGGGLVQAGGSLRLSSAASGRTFRYNAMGWYRQAPGKERELVAAISWSGTSTYYADSVKGRFTISRDNAKNTVYLQMNSLKPEDTAVYYCAARGLYDYGYWGQGTQVTVSS | high polyreactivity
QVQLVESGGGLVQAGGSLRLSSAASGRTFTTYAMGWYRQAHGKERELVAAISGSGGSTYYADSVKGRFTISRDNAKNTVYLQMNSLKPEDTAVYYCATAYYYHGGYYYPYDDYWGQGTQVTVSS | low polyreactivity
QVQLVESGGGLVQAGGSLRLSSAASGRTFVHYAMGWYRQAPGKERELVAAISWSGGSTYYADSVKGRFTISRDNAKNTVYLQMNSLKPEDTAVYYCNAGGFAPGRYGEFDYWGQGTQVTVSS | low polyreactivity
QVQLVESGGGLVQAGGSLRLSSAASGRTFVSYAMGWYRQAPGKERELVAVITYSGGSTNYADSVKGRFTISRDNAKNTVYLQMNSLKPEDTAVYYCAATQSIPYSTLYSYDYWGQGTQVTVSS | low polyreactivity
QVQLVESGGGLVQAGGSLRLSSAASGRTFYGNAMGWYRQAPGKERELVATINYSGGSTYYADSVKGRFTISRDNAKNTVYLQMNSLKPEDTAVYYCAAVDPEEFDYWGQGTQVTVSS | low polyreactivity
QVQLVESGGGLVQAGGSLRLSSAASGSIFETYAMGWSRQAPGKERELVAAITQSGGSTYYADSVKGRFTISRDNAKNTVYLQMNSLKPEDTAVYYCAADLVVWWKWGYEYWGQGTQVTVSS | low polyreactivity
QVQLVESGGGLVQAGGSLRLSSAASGSIFGSNAMGWYRPAPVKERELVAAISSGSTYYADSVKGRFTISRDNAKNTVYLQMNSLKPEDTAVYYCYARSLLYEFDYWGQGTQVTVSS | low polyreactivity
QVQLVESGGGLVQAGGSLRLSSAASGSIFGYAMGWYRQAPGKERELVARIDWSGGRTYYADSVKGRFTISRDNAKNTVYLQMYSLKPDDTAVYYCYARRYLYRGNIVDYWGQGTQVTVSS | high polyreactivity
QVQLVESGGGLVQAGGSLRLSSAASGSIFPANALGWYRQAPGKERELVAASTANGGSTYYADSVKGRFTISRDNAKNTVYLQMNSLKPEDTAVYYCNAYFVSGHAGGYDYWGQGTQETVSS | high polyreactivity
QVQLVESGGGLVQAGGSLRLSSAASGSIFPYYAMGWYRQAPGKERELVAAISWSGTSTYYADSVKGRFTISRDNAKNTVYLQMNSLKPEDTAVYYCNAGYYHFYASGYDYWGQGTQVTVSS | low polyreactivity
QVQLVESGGGLVQAGGSLRLSSAASGSIFRFYTMGWYRQAPGKERELVAAISASGGNTYYADSVKGRFTISRDNAKNTVYLQMNSLKPEDTAVYYCARVKFTKYDYWGQGTQVTVSS | high polyreactivity
QVQLVESGGGLVQAGGSLRLSSAASGSIFSDYAMGWYRQAPGKERELVAAISGTGGGTYYADSVKGRFTISRDNAKNTVYLQMNSLKPEDTAVYYCAADYVFAWWGDYYWGQGTQVTVSS | high polyreactivity
QVQLVESGGGLVQAGGSLRLSSAASGSIFVLNAMGWYRQAPGKERELVAAITNVGSTYYADSVKGRFTISRDNAKNTVYLQMNSLKPEDTAVYYCNADPGEVLVGYDYWGQGTQVTVSS | low polyreactivity
QVQLVESGGGLVQAGGSLRLSSAASGSIFWVYAMGWYRQAPGKERELVAAISNRGGSTYYADSVKGRFTISRDNAKNTVYLQMNSLKPEDTAVYYCAAVVAHHYYWGQGTQVTVSS | high polyreactivity
QVQLVESGGGLVQAGGSLRLSSAASGSIFYKNAKGWYRQAPGKEREFVAGISRRGGSTYYADSVKGRFTISLDNAKNTVYLQMNSLKPEDTAVYYCASSQSGGYDYWGQGTQVTVSS | high polyreactivity
QVQLVESGGGLVQAGGSLRLSSAASGSIFYSYAMGWYRQAPGKERELVARMSSGGSTYYADSVKGRFTISRDNAKNSVYLQMNSLKPEDTAVYYCAAEALYYPYETYDYWGQGTQETVSS | high polyreactivity
